This is an account of results in the supplement of paper PMC5998384.

Series [1] relates to HeLa Kyoto. Nature of the series: melting temperature (median over replicates), in situ; higher = more thermally stable.
The subject of series [2] is HeLa Kyoto. In words: solubility change mitosis vs G1/S (difference of NP-40 vs SDS log2 ratios) (log2 ratio difference); higher = more soluble in mitosis.
Series [3] deals with HeLa Kyoto. In words: thermal stability score vs G1/S (z-score of summed log2 fold changes over temperatures); higher = more thermally stable than in G1/S.
Series [4] relates to HeLa Kyoto. In words: solubility in G1/S (NP-40 vs SDS abundance) (log2 ratio); higher = more soluble. As to conditions: cell cycle stage: G1/S.
[5] abbreviates: cell cycle stage: early G1 (4.5 h after nocodazole release).
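Throughout, for melting temperature (median over replicates), in situ: HeLa Kyoto cells synchronized by double thymidine or nocodazole block, proteins quantified by TMT10plex mass spectrometry, three independent biological replicates.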
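Throughout, for solubility change mitosis vs G1/S (difference of NP-40 vs SDS log2 ratios): synchronized HeLa Kyoto cells (double thymidine block for G1/S, nocodazole release for mitosis), protein amounts in NP-40 versus SDS lysates quantified by mass spectrometry, three biological replicates.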
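Throughout, for solubility in G1/S (NP-40 vs SDS abundance): HeLa Kyoto cells arrested at G1/S by double thymidine block, proteins quantified by TMT10plex mass spectrometry in mild NP-40 versus SDS extracts, three biological replicates.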
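Throughout, for thermal stability score vs G1/S (z-score of summed log2 fold changes over temperatures): synchronized HeLa Kyoto cells, proteins quantified by TMT10plex mass spectrometry, three biological replicates, mitosis taken 0.5 h after nocodazole release, G1/S directly after double thymidine block.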

With “METGTAPLVAPPRRHGAPAAPSPPPRGSRAGPVVVVAPGPPVTTATSAPVTLVAPGEARPAWVPGSAETSAPAPAPAPAPAPAVTGSTVVVLTLEASPEAPKPQLPSGPESPEPAAVAGVETSRALAAGADSPKTEEARPSPAPGPGTPTGTPTRTPSRTAPGALTAKPPLAPKPGTTVASGVTARSASGQVTGGHGAAAATSASAGQAPEDPSGPGTGPSGTCEAPVAVVTVTPAPEPAENSQDLGSTSSLGPGISGPRGQAPDTLSYLDSVSLMSGTLESLADDVSSMGSDSEINGLALRKTDKYGFLGGSQYSGSLESSIPVDVARQRELKWLDMFSNWDKWLSRRFQKVKLRCRKGIPSSLRAKAWQYLSNSKELLEQNPGKFEELERAPGDPKWLDVIEKDLHRQFPFHEMFAARGGHGQQDLYRILKAYTIYRPDEGYCQAQAPVAAVLLMHMPAEQAFWCLVQICDKYLPGYYSAGLEAIQLDGEIFFALLRRASPLAHRHLRRQRIDPVLYMTEWFMCIFARTLPWASVLRVWDMFFCEGVKIIFRVALVLLRHTLGSVEKLRSCQGMYETMEQLRNLPQQCMQEDFLVHEVTNLPVTEALIERENAAQLKKWRETRGELQYRPSRRLHGSRAIHEERRRQQPPLGPSSSLLSLPGLKSRGSRAAGGAPSPPPPVRRASAGPAPGPVVTAEGLHPSLPSPTGNSTPLGSSKETRKQEKERQKQEKERQKQEKEREKERQKQEKEREKQEKEREKQEKERQKQEKKAQGRKLSLRRKADGPPGPHDGGDRPSAEARQDAYF [TBC1D10B]”, the melting temperature in series [1] (cell cycle stage: G1/S) turned out to be 51.2 °C; in series [1] (cell cycle stage: mitosis) it was 52.2 °C. The “solubility change mitosis (log2)” value in series [2] is -0.137. Further, the thermal stability score in series [3] (setting [5]) worked out at 0.22; in series [3] (cell cycle stage: mitosis) it was 0.904. For the same substance, in series [4], the “solubility in G1/S (log2)” value is 0.0909.

Turning to “MATRQRESSITSCCSTSSCDADDEGVRGTCEDASLCKRFAVSIGYWHDPYIQHFVRLSKERKAPEINRGYFARVHGVSQLIKAFLRKTECHCQIVNLGAGMDTTFWRLKDEDLLPSKYFEVDFPMIVTRKLHSIKCKPPLSSPILELHSEDTLQMDGHILDSKRYAVIGADLRDLSELEEKLKKCNMNTQLPTLLIAECVLVYMTPEQSANLLKWAANSFERAMFINYEQVNMGDRFGQIMIENLRRRQCDLAGVETCKSLESQKERLLSNGWETASAVDMMELYNRLPRAEVSRIESLEFLDEMELLEQLMRHYCLCWATKGGNELGLKEITY [LCMT1]”, the melting temperature in series [1] (cell cycle stage: G1/S) was 52.1 °C; in series [1] (cell cycle stage: mitosis), 53.5 °C. Besides, the “solubility change mitosis (log2)” value in series [2] is -0.123. In addition, the thermal stability score in series [3] (setting [5]) is 0.211; in series [3] (cell cycle stage: mitosis), 0.493. Besides, the “solubility in G1/S (log2)” value in series [4] worked out at 0.181.

As to “MQLRNPELHLGCALALRFLALVSWDIPGARALDNGLARTPTMGWLHWERFMCNLDCQEEPDSCISEKLFMEMAELMVSEGWKDAGYEYLCIDDCWMAPQRDSEGRLQADPQRFPHGIRQLANYVHSKGLKLGIYADVGNKTCAGFPGSFGYYDIDAQTFADWGVDLLKFDGCYCDSLENLADGYKHMSLALNRTGRSIVYSCEWPLYMWPFQKPNYTEIRQYCNHWRNFADIDDSWKSIKSILDWTSFNQERIVDVAGPGGWNDPDMLVIGNFGLSWNQQVTQMALWAIMAAPLFMSNDLRHISPQAKALLQDKDVIAINQDPLGKQGYQLRQGDNFEVWERPLSGLAWAVAMINRQEIGGPRSYTIAVASLGKGVACNPACFITQLLPVKRKLGFYEWTSRLRSHINPTGTVLLQLENTMQMSLKDLL”, the melting temperature in series [1] (cell cycle stage: G1/S) was found to be 55.1 °C; in series [1] (cell cycle stage: mitosis), 56.7 °C. Besides, in series [2], the “solubility change mitosis (log2)” value was -0.105. Further, the thermal stability score in series [3] (setting [5]) was -3.45; in series [3] (cell cycle stage: mitosis) it was -2.97. For the same substance, the “solubility in G1/S (log2)” value in series [4] turned out to be 0.24.

In the case of DIP2B, the figures for the melting temperature in series [1] (cell cycle stage: G1/S) and in series [1] (cell cycle stage: mitosis) were 53.4 °C and 53.1 °C, respectively. Further, in series [2], the “solubility change mitosis (log2)” value was -0.12. The thermal stability score is -1.32 in series [3] (setting [5]) and -2.08 in series [3] (cell cycle stage: mitosis). In addition, the “solubility in G1/S (log2)” value in series [4] is -0.125.

Consider “MAVSAGSARTSPSSDKVQKDKAELISGPRQDSRIGKLLGFEWTDLSSWRRLVTLLNRPTDPASLAVFRFLFGFLMVLDIPQERGLSSLDRKYLDGLDVCRFPLLDALRPLPLDWMYLVYTIMFLGALGMMLGLCYRISCVLFLLPYWYVFLLDKTSWNNHSYLYGLLAFQLTFMDANHYWSVDGLLNAHRRNAHVPLWNYAVLRGQIFIVYFIAGVKKLDADWVEGYSMEYLSRHWLFSPFKLLLSEELTSLLVVHWGGLLLDLSAGFLLFFDVSRSIGLFFVSYFHCMNSQLFSIGMFSYVMLASSPLFCSPEWPRKLVSYCPRRLQQLLPLKAAPQPSVSCVYKRSRGKSGQKPGLRHQLGAAFTLLYLLEQLFLPYSHFLTQGYNNWTNGLYGYSWDMMVHSRSHQHVKITYRDGRTGELGYLNPGVFTQSRRWKDHADMLKQYATCLSRLLPKYNVTEPQIYFDIWVSINDRFQQRIFDPRVDIVQAAWSPFQRTSWVQPLLMDLSPWRAKLQEIKSSLDNHTEVVFIADFPGLHLENFVSEDLGNTSIQLLQGEVTVELVAEQKNQTLREGEKMQLPAGEYHKVYTTSPSPSCYMYVYVNTTELALEQDLAYLQELKEKVENGSETGPLPPELQPLLEGEVKGGPEPTPLVQTFLRRQQRLQEIERRRNTPFHERFFRFLLRKLYVFRRSFLMTCISLRNLILGRPSLEQLAQEVTYANLRPFEAVGELNPSNTDSSHSNPPESNPDPVHSEF [GGCX]”, for which the melting temperature in series [1] (cell cycle stage: G1/S) is 53 °C; in series [1] (cell cycle stage: mitosis), 53.1 °C. The “solubility change mitosis (log2)” value in series [2] is -0.054. The thermal stability score in series [3] (setting [5]) was -1.48; in series [3] (cell cycle stage: mitosis) it was -3.01. Further, in series [4], the “solubility in G1/S (log2)” value was determined as 0.0675.
